Patent US8697369B2, “Method for screening a test substance for activating a receptor associated with FGF 21 activity” (National Institute of Advanced Industrial Science and …, priority 2007, dated 2014)

Columns and labels:
Format in all cases: binding
[1] = molecular target: T1, FGF receptor subtype R4 (FGFR-Fc) (Homo sapiens, UniProt P22455); test: Co-precipitation of soluble betaKlotho with FGFR-Fc (protein A beads), R4
T1 construct: adding an immunoglobulin Fc domain to the extracellular domain of an FGF receptor; purchased R&D Systems
T1 sequence (P22455 22-369 limits assumed): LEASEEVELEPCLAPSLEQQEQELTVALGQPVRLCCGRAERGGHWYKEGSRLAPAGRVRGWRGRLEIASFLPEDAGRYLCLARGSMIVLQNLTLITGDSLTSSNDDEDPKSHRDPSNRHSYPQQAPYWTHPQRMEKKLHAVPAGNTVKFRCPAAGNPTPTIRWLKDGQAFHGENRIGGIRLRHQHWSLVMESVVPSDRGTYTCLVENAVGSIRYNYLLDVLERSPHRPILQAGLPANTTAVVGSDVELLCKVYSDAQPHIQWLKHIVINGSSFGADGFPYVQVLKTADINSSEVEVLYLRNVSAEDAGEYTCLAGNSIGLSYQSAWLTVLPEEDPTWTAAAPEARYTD
Experimental: (§1) Moreover, the soluble betaKlotho protein and a fusion protein obtained by adding an immunoglobulin Fc domain to the extracellular domain of an FGF receptor (FGFR-Fc; manufactured by R&D Systems) were incubated, and FGFR-Fc was then precipitated using protein A beads. Whether or not betaKlotho bound to FGFR-Fc and was co-precipitated therewith was analyzed.

[2] = molecular target: T2, FGF receptor subtype R1c (FGFR-Fc) (Homo sapiens, UniProt P11362); test: Co-precipitation of soluble betaKlotho with FGFR-Fc (protein A beads), R1c
T2 construct: adding an immunoglobulin Fc domain to the extracellular domain of an FGF receptor; purchased R&D Systems
T2 sequence (P11362 22-376 limits assumed): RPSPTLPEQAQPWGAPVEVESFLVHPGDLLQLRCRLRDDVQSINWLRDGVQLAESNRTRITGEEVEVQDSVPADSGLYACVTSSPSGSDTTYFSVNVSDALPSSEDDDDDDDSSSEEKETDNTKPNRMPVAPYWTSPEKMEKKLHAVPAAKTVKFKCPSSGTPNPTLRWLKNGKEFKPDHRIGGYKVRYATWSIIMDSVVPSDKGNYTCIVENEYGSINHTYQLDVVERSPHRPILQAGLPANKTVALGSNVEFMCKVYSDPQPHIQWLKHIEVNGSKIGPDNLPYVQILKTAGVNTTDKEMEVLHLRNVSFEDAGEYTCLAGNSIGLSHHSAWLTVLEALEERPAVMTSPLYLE
Experimental: as §1

[3] = molecular target: T3, FGF receptor subtype R2c (FGFR-Fc) (Homo sapiens, UniProt P21802); test: Co-precipitation of soluble betaKlotho with FGFR-Fc (protein A beads), R2c
T3 construct: adding an immunoglobulin Fc domain to the extracellular domain of an FGF receptor; purchased R&D Systems
T3 sequence (P21802 22-377 limits assumed): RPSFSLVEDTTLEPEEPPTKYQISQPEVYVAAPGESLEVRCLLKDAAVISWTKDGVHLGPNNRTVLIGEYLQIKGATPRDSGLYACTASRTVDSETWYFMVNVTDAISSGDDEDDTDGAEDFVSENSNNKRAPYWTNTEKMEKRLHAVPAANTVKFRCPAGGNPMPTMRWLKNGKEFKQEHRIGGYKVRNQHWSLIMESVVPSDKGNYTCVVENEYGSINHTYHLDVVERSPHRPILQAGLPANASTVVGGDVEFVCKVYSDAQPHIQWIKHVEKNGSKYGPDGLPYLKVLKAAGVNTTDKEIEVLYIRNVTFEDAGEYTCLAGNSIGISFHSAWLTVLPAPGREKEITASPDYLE
Experimental: as §1

[4] = molecular target: T4, FGF receptor subtype R3c (FGFR-Fc) (Homo sapiens, UniProt P22607); test: Co-precipitation of soluble betaKlotho with FGFR-Fc (protein A beads), R3c
T4 construct: adding an immunoglobulin Fc domain to the extracellular domain of an FGF receptor; purchased R&D Systems
T4 sequence (P22607 23-375 limits assumed): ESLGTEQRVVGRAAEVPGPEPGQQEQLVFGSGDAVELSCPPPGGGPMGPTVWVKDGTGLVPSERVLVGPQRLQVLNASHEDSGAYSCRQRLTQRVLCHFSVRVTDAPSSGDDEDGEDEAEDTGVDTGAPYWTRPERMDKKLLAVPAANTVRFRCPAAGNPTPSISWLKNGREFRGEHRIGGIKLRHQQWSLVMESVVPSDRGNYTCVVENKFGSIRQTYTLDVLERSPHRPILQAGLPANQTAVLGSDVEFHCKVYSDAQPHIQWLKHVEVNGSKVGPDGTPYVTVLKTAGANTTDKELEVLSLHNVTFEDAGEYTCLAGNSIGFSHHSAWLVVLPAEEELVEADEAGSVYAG
Experimental: as §1

co-precipitation (binding) with FGFR-Fc [1]: binds to all of FGF receptor subtypes | co-precipitation (binding) with FGFR-Fc [2]: binds to all of FGF receptor subtypes | co-precipitation (binding) with FGFR-Fc [3]: binds to all of FGF receptor subtypes | co-precipitation (binding) with FGFR-Fc [4]: binds to all of FGF receptor subtypes
Substance: betaKlotho: soluble protein: extracellular domain of betaKlotho with V5 tag and His tag at the C-terminus
